The values that follow come from patent US20120251444A1.

This assay has as its target LRP1 on wild-type CHO-K1 cells. As to the kind of experiment: cell-based or functional assay.

The substance “mini-RAPc (Hep1) combined with equimolar streptavidin-saporin conjugate (ZAP) (from UniProt P22629 37-163)” came in with a reduction of viable cell number (MTT assay, 100 nM, 48 hours) of 40%.
